In experiment [1] the test system is classical complement pathway. In words: In vitro haemolysis assay (inhibition of classical complement pathway). Type of experiment: cell-based. The settings on record: human serum, sensitized sheep RBC, 30 minutes at 37° C., absorbance at 405 nm, n=>2; read-out: IC50, inhibition of hemolysis. The method, boiled down: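 Compounds in 9-point serial dilution in Tris/casein buffer pH 7.4 (Ca2+/Mg2+) preincubated 15 min at room temperature with diluted human serum (dilution giving 70-90% maximal haemolysis), then antibody-sensitized sheep RBCs added, 30 min at 37° C. EDTA stop; supernatant haemoglobin read at 405 nm. IC50 from 4PL fit, normalized to controls, n≥2.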

The target in experiment [2] is T1, Human C3 (Homo sapiens, UniProt P01024).
T1 construct: purchased Complement tech A113c
The experiment is described as follows: Affinity measurement by surface plasmon resonance with immobilized C3. The settings on record: SPR, immobilized human C3, 25° C., 1:1 Langmuir binding model, n=>2. On the procedure: (§1) Surface plasmon resonance (SPR) was used to characterize peptides with respect to their binding affinity (Kd) for C3.
For interaction experiments, a multi-cycle experiment approach was used and performed using a BiacoreX100™ instrument (GE Healthcare) at 25° C. Peptides were injected in increasing concentration series (5 different concentrations and buffer reference) for 180 seconds at a flow rate of 30 μL/min in a buffer consisting of 50 mM Tris buffer at pH 7.4, with 150 mM NaCl and 0.05% Tween20. This was followed by a dissociation period for 10 min. The C3 surface was regenerated between runs by two consecutive injections of 3 M MgCl2 each for 45 seconds.
(§2) Sensorgrams were double-referenced (reference surface, blanks) prior to analysis of the kinetic profiles by globally fitting data to a 1:1 Langmuir binding model to obtain association and dissociation rates for calculation of the equilibrium dissociation constant Kd (Table 3). Each peptide was tested at in at least 2 independent experiments.

Experiment [3] concerns the target T2, Human C3 (Complement tech cat #A113c) (human, UniProt P01024 23-1663). The experiment is described as follows: cell-based or functional assay.
The target of experiment [4] is T2, Human C3 (Complement tech cat #A113c). In words: SPR (Biacore X100, 25 C), human C3 amine-coupled on CM5 chip, peptide as analyte, 1:1 Langmuir fit. As for the experimental part:
as §1
For interaction experiments, a multi-cycle experiment approach was used and performed using a BiacoreX100™ instrument (GE Healthcare) at 25° C. Peptides were injected in increasing concentration series (5 different concentrations and buffer reference) for 180 seconds at a flow rate of 30 μL/min in a buffer consisting of 50 mM Tris buffer at pH 7.4, with 150 mM NaCl and 0.05% Tween20. This was followed by a dissociation period for 10 min.
as §2

Numbered stars: 1 amine (or outer) side, 2 acyl side, 3 side chain; on linkers, the order of the positions; unused ones are H or OH. Bridge positions count the residues as written; N and C are the ends. Square brackets hold non-standard residues; d marks the D form. Side chains are listed from the residue outwards. Peptide text beside a SMILES is read from it. * marks the point of attachment. Trp(1-Me) = Cn1cc(C[C@H](N)C(=O)O)c2ccccc21; C18 diacid = O=C(O)CCCCCCCCCCCCCCCCC(=O)*; γGlu = O=C(O)[C@H](CCC(=O)[*:2])N[*:1]; AEEA = NCCOCCOCC(=O)O; CH2 = C([*:1])[*:2]; Sar = CNCC(=O)O

T2 sequence (P01024 23-1663 limits assumed): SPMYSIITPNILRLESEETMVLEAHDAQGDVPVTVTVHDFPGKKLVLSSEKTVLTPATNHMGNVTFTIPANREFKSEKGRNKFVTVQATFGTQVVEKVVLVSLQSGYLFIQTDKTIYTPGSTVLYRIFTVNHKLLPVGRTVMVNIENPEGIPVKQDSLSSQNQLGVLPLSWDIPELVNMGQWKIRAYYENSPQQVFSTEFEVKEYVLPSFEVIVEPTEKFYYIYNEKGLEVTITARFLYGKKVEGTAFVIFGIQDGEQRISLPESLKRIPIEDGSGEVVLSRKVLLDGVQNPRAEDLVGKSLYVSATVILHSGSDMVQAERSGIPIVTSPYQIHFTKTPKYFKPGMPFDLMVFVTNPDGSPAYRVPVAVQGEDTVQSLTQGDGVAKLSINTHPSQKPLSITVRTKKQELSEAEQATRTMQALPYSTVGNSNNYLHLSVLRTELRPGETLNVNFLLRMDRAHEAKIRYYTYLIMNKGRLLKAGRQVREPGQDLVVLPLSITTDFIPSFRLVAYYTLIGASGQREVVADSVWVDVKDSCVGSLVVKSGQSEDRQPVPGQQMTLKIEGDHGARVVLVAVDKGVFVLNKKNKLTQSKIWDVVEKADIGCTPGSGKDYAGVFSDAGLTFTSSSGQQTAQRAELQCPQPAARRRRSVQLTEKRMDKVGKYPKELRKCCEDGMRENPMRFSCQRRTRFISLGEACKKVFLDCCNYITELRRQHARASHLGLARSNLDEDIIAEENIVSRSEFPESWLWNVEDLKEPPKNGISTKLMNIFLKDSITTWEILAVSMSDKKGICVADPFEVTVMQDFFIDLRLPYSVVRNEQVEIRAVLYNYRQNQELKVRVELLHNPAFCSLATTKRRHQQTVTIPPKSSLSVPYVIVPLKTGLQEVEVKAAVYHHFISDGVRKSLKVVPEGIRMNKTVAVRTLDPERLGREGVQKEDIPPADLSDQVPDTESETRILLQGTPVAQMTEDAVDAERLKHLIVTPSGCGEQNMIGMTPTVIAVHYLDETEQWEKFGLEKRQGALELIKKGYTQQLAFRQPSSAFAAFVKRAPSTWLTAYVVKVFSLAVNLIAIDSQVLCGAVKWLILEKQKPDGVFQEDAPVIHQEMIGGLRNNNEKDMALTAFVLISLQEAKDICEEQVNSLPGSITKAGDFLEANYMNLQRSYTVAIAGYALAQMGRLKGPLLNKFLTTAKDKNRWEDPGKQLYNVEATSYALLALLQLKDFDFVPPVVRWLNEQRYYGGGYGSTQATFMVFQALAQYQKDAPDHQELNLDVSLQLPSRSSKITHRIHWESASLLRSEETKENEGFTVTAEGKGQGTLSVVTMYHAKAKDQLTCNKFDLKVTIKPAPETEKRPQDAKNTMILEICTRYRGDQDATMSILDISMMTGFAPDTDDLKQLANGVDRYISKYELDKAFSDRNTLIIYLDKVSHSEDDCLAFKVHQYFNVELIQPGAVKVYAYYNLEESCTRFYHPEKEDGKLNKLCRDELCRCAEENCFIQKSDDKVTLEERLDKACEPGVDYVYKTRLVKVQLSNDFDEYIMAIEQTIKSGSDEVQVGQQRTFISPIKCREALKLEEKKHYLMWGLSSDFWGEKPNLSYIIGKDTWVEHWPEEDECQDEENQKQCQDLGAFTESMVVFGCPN

As to `CC[C@H](C)[C@@H]1NC(=O)[C@@H](NC(=O)[C@H](Cc2ccccc2)NC(=O)CNC(=O)[C@H](CO)NC(=O)[C@H](CCC(=O)O)NC(=O)CNC(=O)[C@H](CCC(=O)O)NC(C)=O)CSCSC[C@@H](C(=O)N[C@H](C(=O)N[C@@H](CCC(=O)O)C(=O)NCC(=O)N[C@@H](CCC(=O)O)C(=O)NCCOCCOCC(=O)NCCOCCOCC(=O)N[C@@H](CCCCNC(=O)CC[C@H](NC(=O)CNC(=O)CC[C@H](NC(=O)CCCCCCCCCCCCCCCCC(=O)O)C(=O)O)C(=O)O)C(N)=O)[C@@H](C)O)NC(=O)[C@H](CCCNC(=N)N)NC(=O)[C@H](Cc2c[nH]cn2)NC(=O)[C@H](CCC(=O)O)NC(=O)CN(C)C(=O)[C@H](Cc2c[nH]c3ccccc23)NC(=O)[C@H](CC(=O)O)NC(=O)[C@H](CCC(N)=O)NC(=O)[C@H](Cc2cn(C)c3ccccc23)NC1=O` [Compound 27, Ac-EGESGF[C(1)]I[1-Me-Trp]QDW[Sar]EHR[C(1)]TEGE[Peg3][Peg3]-K([17-Carboxy-heptadecanoyl][yGlu]G[yGlu])-NH2] (Ac-EGESGFCI[Trp(1-Me)]QDW[Sar]EHRCTEGE[AEEA][AEEA]K([γGlu-Gly-γGlu-C18 diacid])-NH2; linker 7-17 via CH2), in experiment [1], the IC50 was less than 100 nM. For the same molecule, binding in experiment [2] was characterised by a dissociation constant (Kd) of 17 nM.

Regarding `CC[C@H](C)[C@@H]1NC(=O)[C@@H](NC(=O)[C@H](Cc2ccccc2)NC(=O)[C@H](C)NC(=O)[C@H](CO)NC(=O)[C@H](CCC(N)=O)NC(=O)CNC(C)=O)CSCSC[C@@H](C(=O)N[C@H](C(=O)N[C@@H](CCC(=O)O)C(=O)NCC(=O)N[C@@H](CCC(=O)O)C(=O)NCCOCCOCC(=O)NCCOCCOCC(=O)N[C@@H](CCCCNC(=O)CC[C@H](NC(=O)CNC(=O)CC[C@H](NC(=O)CCCCCCCCCCCCCCCCC(=O)O)C(=O)O)C(=O)O)C(N)=O)[C@@H](C)O)NC(=O)[C@H](CCCNC(=N)N)NC(=O)[C@H](Cc2c[nH]cn2)NC(=O)[C@H](CCC(=O)O)NC(=O)CN(C)C(=O)[C@H](Cc2c[nH]c3ccccc23)NC(=O)[C@H](CC(=O)O)NC(=O)[C@H](CCC(N)=O)NC(=O)[C@H](Cc2cn(C)c3ccccc23)NC1=O` [Compound 28, Ac-GQSAF[C(1)]I[1-Me-Trp]QDW[Sar]EHR[C(1)]TEGE[Peg3][Peg3]-K([17-Carboxy-heptadecanoyl][yGlu]G[yGlu])-NH2] (Ac-GQSAFCI[Trp(1-Me)]QDW[Sar]EHRCTEGE[AEEA][AEEA]K([γGlu-Gly-γGlu-C18 diacid])-NH2; linker 6-16 via CH2), the IC50 in experiment [1] is less than 100 nM. Besides, binding in experiment [2] was put at a Kd of 15 nM.

Consider `CC[C@H](C)[C@@H]1NC(=O)[C@@H](NC(=O)[C@H](Cc2ccccc2)NC(=O)[C@H](CCC(=O)O)NC(=O)[C@H](CO)NC(C)=O)CSCSC[C@@H](C(=O)N[C@H](C(=O)N[C@@H](CCC(=O)O)C(=O)NCC(=O)N[C@@H](CCC(=O)O)C(=O)NCCOCCOCC(=O)NCCOCCOCC(=O)N[C@@H](CCCCNC(=O)CC[C@H](NC(=O)CNC(=O)CC[C@H](NC(=O)CCCCCCCCCCCCCCCCC(=O)O)C(=O)O)C(=O)O)C(N)=O)[C@@H](C)O)NC(=O)[C@H](CCCNC(=N)N)NC(=O)[C@H](Cc2c[nH]cn2)NC(=O)[C@H](CCC(=O)O)NC(=O)CN(C)C(=O)[C@H](Cc2c[nH]c3ccccc23)NC(=O)[C@H](CC(=O)O)NC(=O)[C@H](CCC(N)=O)NC(=O)[C@H](Cc2cn(C)c3ccccc23)NC1=O` [Compound 9] (Ac-SEFCI[Trp(1-Me)]QDW[Sar]EHRCTEGE[AEEA][AEEA]K([γGlu-Gly-γGlu-C18 diacid])-NH2; linker 4-14 via CH2), for which the IC50 in experiment [1] is less than 250 nM. Further, the dissociation constant (Kd) in experiment [2] was 17 nM.

On to `CC[C@H](C)[C@@H]1NC(=O)[C@@H](NC(=O)[C@H](Cc2ccccc2)NC(=O)[C@H](CCC(=O)O)NC(=O)[C@H](CO)NC(C)=O)CSCSC[C@@H](C(=O)N[C@H](C(=O)N[C@@H](CCC(=O)O)C(=O)NCCOCCOCC(=O)NCCOCCOCC(=O)N[C@@H](CCCCNC(=O)CC[C@H](NC(=O)CNC(=O)CC[C@H](NC(=O)CCCCCCCCCCCCCCCCC(=O)O)C(=O)O)C(=O)O)C(N)=O)[C@@H](C)O)NC(=O)[C@H](CCCNC(=N)N)NC(=O)[C@H](Cc2c[nH]cn2)NC(=O)[C@H](CCC(=O)O)NC(=O)CN(C)C(=O)[C@H](Cc2c[nH]c3ccccc23)NC(=O)[C@H](CC(=O)O)NC(=O)[C@H](CCC(N)=O)NC(=O)[C@H](Cc2cn(C)c3ccccc23)NC1=O` [Compound 10, Ac-SEF[C(1)]I[1-Me-Trp]QDW[Sar]EHR[C(1)]TE[Peg3][Peg3]-K([17-Carboxy-heptadecanoyl][yGlu]G[yGlu])-NH2] (Ac-SEFCI[Trp(1-Me)]QDW[Sar]EHRCTE[AEEA][AEEA]K([γGlu-Gly-γGlu-C18 diacid])-NH2; linker 4-14 via CH2), for which, in experiment [1], the IC50 was less than 250 nM. In addition, in experiment [2], the Kd is 19 nM.

B1: Compound 24 (peptide)
peptide: Ac-ESEQVFCI[Trp(1-Me)]QDW[Sar]EHRCTEGE[AEEA][AEEA]K([γGlu-Gly-γGlu-C18 diacid])-NH2
modifications: bridge 7-17 via methylene thioacetal (-S-CH2-S-)
notes: Synthetic compstatin analogue; also called Comp No 24
In the case of B1, the “IC50 [nM], in vitro inhibition of hemolysis (classical complement pathway; human serum, sensitized sheep RBC)” value (from here on “IC50 [nM], in vitro inhibition”) in experiment [3] is less than 100 nM. The molecule also registered a Kd in experiment [4] of 13 nM.

B2: Compound 12 (peptide)
peptide: Ac-EFCI[Trp(1-Me)]QDW[Sar]EHRCTEA[AEEA][AEEA]K([γGlu-Gly-γGlu-C18 diacid])-NH2
modifications: bridge 3-13 via methylene thioacetal (-S-CH2-S-)
notes: Synthetic compstatin analogue; also called Comp No 12
As to B2, the “IC50 [nM], in vitro inhibition” value in experiment [3] is less than 100 nM. Binding in experiment [4] was characterised by a dissociation constant (Kd) of 12 nM.

B3: Compound 7 (peptide)
peptide: Ac-SEFCI[Trp(1-Me)]QDW[Sar]EHRC[Sar]E[AEEA][AEEA]K([γGlu-Gly-γGlu-C18 diacid])-NH2
modifications: bridge 4-14 via methylene thioacetal (-S-CH2-S-)
notes: Synthetic compstatin analogue; also called Comp No 7
As for B3, the “IC50 [nM], in vitro inhibition” value in experiment [3] is less than 500 nM. Moreover, the affinity in experiment [4], expressed as Kd, was 21 nM.

B4: Compound 2 (peptide)
peptide: Ac-SEFCI[Trp(1-Me)]QDWGEHRC[Sar]EGE[AEEA][AEEA]K([γGlu-Gly-γGlu-C18 diacid])-NH2
modifications: bridge 4-14 via methylene thioacetal (-S-CH2-S-)
notes: Synthetic compstatin analogue; also called Comp No 2
Take B4: in experiment [3], the “IC50 [nM], in vitro inhibition” value is less than 500 nM. The molecule further showed a Kd in experiment [4] of 54 nM.

B5: Compound 1 (peptide)
peptide: SEFCIWQDWGEHRCTGAES
modifications: N-terminal acetyl; 1-Me-Trp at 6; Cys4 and Cys14 bridged by methylene thioacetal (-S-CH2-S-); C-terminal amide
notes: Synthetic compstatin analogue; also called Comp No 1
Consider B5, for which the “IC50 [nM], in vitro inhibition” value in experiment [3] was less than 100 nM. Moreover, the affinity in experiment [4], expressed as Kd, was 25 nM.

B6: Compound 25 (peptide)
peptide: Ac-SEQAFCI[Trp(1-Me)]QDW[Sar]EHRCTEGE[AEEA][AEEA]K([γGlu-Gly-γGlu-C18 diacid])-NH2
modifications: bridge 6-16 via methylene thioacetal (-S-CH2-S-)
notes: Synthetic compstatin analogue; also called Comp No 25; comp 25
For the molecule B6, the “IC50 [nM], in vitro inhibition” value in experiment [3] was less than 100 nM. This molecule also came in with a Kd in experiment [4] of 9.1 nM.

B7: Compound 26 (peptide)
peptide: Ac-SKQEFCI[Trp(1-Me)]QDW[Sar]EHRCTEGE[AEEA][AEEA]K([γGlu-Gly-γGlu-C18 diacid])-NH2
modifications: bridge 6-16 via methylene thioacetal (-S-CH2-S-)
notes: Synthetic compstatin analogue; also called Comp No 26
As to B7, the “IC50 [nM], in vitro inhibition” value in experiment [3] was less than 100 nM. Moreover, the Kd in experiment [4] turned out to be 11 nM.

B8: Compound 23 (peptide)
peptide: Ac-ESQVFCI[Trp(1-Me)]QDW[Sar]EHRCTEGE[AEEA][AEEA]K([γGlu-Gly-γGlu-C18 diacid])-NH2
modifications: bridge 6-16 via methylene thioacetal (-S-CH2-S-)
notes: Synthetic compstatin analogue; also called Comp No 23
Consider B8, for which the “IC50 [nM], in vitro inhibition” value in experiment [3] was less than 100 nM. Moreover, in experiment [4], the Kd came to 14 nM.

B9: Compound 15 (peptide)
peptide: Ac-[dY]ICI[Trp(1-Me)]QDW[Sar]EHRCTEGE[AEEA]ESK([γGlu-C18 diacid])-NH2
modifications: bridge 3-13 via methylene thioacetal (-S-CH2-S-)
notes: Synthetic compstatin analogue; also called Comp No 15
For B9, in experiment [3], the “IC50 [nM], in vitro inhibition” value was less than 250 nM. Besides, the Kd in experiment [4] stood at 16 nM.

Values taken from patent publication US20230287051A1, “INHIBITORS OF COMPLEMENT FACTOR C3 AND THEIR MEDICAL USES” (ZP SPV 3 K/S, priority 2020, published 2023).
